Assay [1] has as its target T1, full-length human B7RP-1 on cells (human, UniProt O75144 19-302).
T1 sequence (looked up): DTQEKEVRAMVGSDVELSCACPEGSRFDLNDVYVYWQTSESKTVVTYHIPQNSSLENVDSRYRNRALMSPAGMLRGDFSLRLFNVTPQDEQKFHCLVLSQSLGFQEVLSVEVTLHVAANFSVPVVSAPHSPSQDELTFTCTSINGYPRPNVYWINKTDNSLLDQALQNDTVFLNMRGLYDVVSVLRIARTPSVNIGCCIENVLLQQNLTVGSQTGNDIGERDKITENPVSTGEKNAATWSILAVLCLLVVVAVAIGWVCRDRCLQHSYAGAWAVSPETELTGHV
The experiment in a line: cell-based or functional assay.

Assay [2] has as its target T2, human B7RP1-Fc fusion protein (human, UniProt O75144 19-256, limits assumed).
T2 construct: also called hB7RP-1-Fc; hB7RP1Fc; not shown: Fc part
T2 sequence (looked up): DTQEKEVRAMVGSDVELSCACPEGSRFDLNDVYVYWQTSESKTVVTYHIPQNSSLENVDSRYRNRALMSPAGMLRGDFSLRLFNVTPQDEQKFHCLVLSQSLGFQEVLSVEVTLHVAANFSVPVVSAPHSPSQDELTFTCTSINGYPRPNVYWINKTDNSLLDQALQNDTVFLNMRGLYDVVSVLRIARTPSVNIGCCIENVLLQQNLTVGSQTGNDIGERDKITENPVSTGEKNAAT
The experiment in a line: Biacore Fc column of Table 4.

For assay [3], the target named is T3, human B7RP-1 Ig2 (IgC-like) domain fused to chicken avidin (human; chicken, UniProt O75144 120-246).
T3 construct: Order of the parts not certain ('N-terminal, in-frame fusions with chicken avidin'); also called Ig2 domain; membrane-proximal Ig2 domain; not shown: chicken avidin
T3 sequence: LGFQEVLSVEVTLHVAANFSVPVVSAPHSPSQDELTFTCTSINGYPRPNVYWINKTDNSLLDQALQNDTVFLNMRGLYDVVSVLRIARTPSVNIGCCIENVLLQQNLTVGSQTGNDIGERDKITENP
The experiment in a line: avidin fusion on biotin-coated beads, fluorescently labeled ICOS-Fc, flow cytometry. The procedure:
(§1) Experiments were conducted to identify the region on B7RP-1 to which the 16H/16Hg and 5D monoclonal antibodies bind. To do this a novel Fluorescence-Activated Cell Sorter (FACS) binding assay was developed. The human extracellular domain (ECD) of B7RP1 (SEQ ID NO: 66) as well as truncated forms of B7RP-1 containing either the Ig1 (IgV-like; SEQ ID NO: 67) or the Ig2 (IgC-like; SEQ ID NO: 68) were expressed as N-terminal, in-frame fusions with chicken avidin.
(§2) Expression vectors containing genes encoding these fusion proteins were individually transiently transfected into 293T cells and the conditioned media from these cell lines were used as the source of fusion protein. The avidin-tag was used to capture the B7R-1 fusion proteins from solution using a biotin-coated bead. Fusion proteins were incubated with either fluorescently-labeled 16H or 5D mAbs or a fluorescently-labeled ICOS-Fc fusion protein, and incubated with biotin-coated beads The beads were recovered and analyzed using flow cytometry on a Becton-Dickinson Bioscience FACScan (BD, Franklin Lakes, N.J.). […] Thus, the ICOS, 16H, and 5D binding regions on B7RP-1 were located in the Ig1 domain
In general terms: Flow cytometry measures light scatter and fluorescence of single cells or particles in a stream.

In assay [4] the target is T2, human B7RP1-Fc fusion protein. As to the kind of experiment: cell-based or functional assay.
For assay [5] the target is unchanged. The experiment in a line: Biacore Fc column of Table 4 (same value as Table 3). How it is done: (§3) A fixed concentration of mAb was then incubated with varying concentrations of B7RP-1 or B7RP1-Fc for at least eight hours at room temperature to allow them to reach equilibrium. The samples were then injected over the B7RP1-Fc surface, and the binding signal observed represented free antibody remaining in solution at equilibrium.

For assay [6], the target named is T4, soluble recombinant human B7RP-1 (human, UniProt O75144 19-256, limits assumed).
T4 construct: also called hB7RP-1; soluble B7RP-1
T4 sequence (looked up): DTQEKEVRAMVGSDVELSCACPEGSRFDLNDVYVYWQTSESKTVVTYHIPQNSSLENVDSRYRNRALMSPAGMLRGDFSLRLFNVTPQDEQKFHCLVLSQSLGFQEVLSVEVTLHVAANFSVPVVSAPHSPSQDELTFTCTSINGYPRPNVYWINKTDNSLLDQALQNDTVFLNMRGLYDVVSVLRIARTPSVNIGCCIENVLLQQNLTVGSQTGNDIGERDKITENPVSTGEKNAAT
As to the kind of experiment: Biacore mono column of Table 4 (same value as Table 3). The procedure:
as §3

The target of assay [7] is T3, human B7RP-1 Ig2 (IgC-like) domain …. The experiment in a line: avidin fusion on biotin-coated beads, fluorescently labeled 16H, flow cytometry. The procedure: as §2
Assay [8] addresses T2, human B7RP1-Fc fusion protein. As to the kind of experiment: Biacore solution equilibrium: mAb pre-incubated with B7RP1-Fc, free mAb read on immobilized B7RP1-Fc. The procedure:
as §3
(In general: In SPR one partner is held on a chip, and binding of the other changes the refractive index at the surface.)

Assay [9] deals with T4, soluble recombinant human B7RP-1. The experiment in a line: Biacore solution equilibrium: mAb pre-incubated with soluble B7RP-1, free mAb read on immobilized B7RP1-Fc. How it is done: as §3
Assay [10] has the same target. As to the kind of experiment: KinExA, dual-curve fit at [Ab] 100 pM and 300 pM, hB7RP-1 titrated in solution. The procedure:
(§4) Binding of 5D, 2H, and 2H germline antibodies was also tested using KinExA (kinetic exclusion assay) technology. In this assay, hB7RP-1 was coupled to agarose beads. The beads were used to create a bead column. Samples containing antibody at a fixed concentration, which were allowed to come to equilibrium with varying concentrations of hB7RP-1, were then passed over the bead column. Antibody not complexed with ligand bound to the coated beads.
(§5) A fluorescent tagged anti-human Fc secondary antibody was used to detect bound test antibody.
(In general: Kinetic exclusion samples the free partner from a solution-phase mixture.)

Assay [11] shares this target. As to the kind of experiment: KinExA, hB7RP-1 on agarose beads, antibody equilibrated with hB7RP-1 in solution. The procedure: as §4, §5
In assay [12] the target is T3, human B7RP-1 Ig2 (IgC-like) domain …. As to the kind of experiment: flow cytometry of biotin-coated beads capturing the avidin fusion protein, stained with fluorescently labelled antibody.
Assay [13] has the same target. As to the kind of experiment: avidin fusion on biotin-coated beads, fluorescently labeled 5D, flow cytometry. How it is done:
as §1, §2

Nine molecules from patent US20080166352A1 (Amgen, published 2008) can be followed below.

B1: ICOS-Fc fusion protein (Fc fusion, UniProt Q9Y6W8 21-140, looked up)
chain: EINGSANYEMFIFHNGGVQILCKYPDIVQQFKMQLLKGGQILCDLTKTKGSGNTVSIKSLKFCHSQLSNNSVSFFLYNLDHSHANYYFCNLSIFDPPPFKVTLTGGYLHIYESQLCCQLK
notes: Fluorescently labelled in the flow cytometry assays; also called ICOS reagent; not shown: Fc part
A word on the Kd: it is the constant that tells how readily two partners part at equilibrium. For the molecule B1, the “CHO (co-stimulation assay with hB7RP1 transfected CHO cells, T cell proliferation) EC50” value (“CHO” for short) in assay [1] was 10.7 nM. Also, in [2], the Kd stood at 1 nM. Besides, in [3], the binding result was “no binding”.

B2: anti-B7RP1 human monoclonal antibody 16H (antibody, V domains shown)
VH: EVQLVESGGGLVQPGGSLRLSCAGSGFTFSSYWMSWVRQAPGKGLEWVAYIKQDGNEKYYVDSVKGRFTISRDNAKKSLYLQMNSLRAEDTAVYYCAREGILWFGDLPTFWGQGILVTVSS
VL: DIQMTQSPSSLSASVGDRVTITCRASQGISNWLAWYQQKPEKAPKSLIYAASSLQSGVPSRFSGSGSGTDFTLTISSLQPEDFATYYCQQYDSYPRTFGQGTKVEIK
notes: Fluorescently labelled in the flow cytometry assays; also called 16H mAb; B7RP-1 16H
Turning to B2, the “Plate (co-stimulation assay, T cell proliferation) EC50” value (from here on “Plate”) in assay [4] was found to be 0.053 nM. In addition, the “CHO” value in assay [1] was determined as 0.276 nM. For the same molecule, the Kd stood at 0.027 nM in [5], 1.9 nM in assay [6], 0.027 nM in assay [8] and 1.9 nM in [9]. Besides, the binding result in assay [7] is “no binding”.

B3: anti-B7RP1 human monoclonal antibody 2H germline (antibody, V domains shown)
VH: EVQLVESGGGLVQPGGSLRLSCAASGFTFSSYWMSWVRQAPGKGLEWVAYIKQDGSEKYYVDSVKGRFTISRDNAKNSLYLQMNSLRAEDTAVYYCARDGILWFGDIPTYWGQGTLVTVSS
VL: DIQMTQSPSSLSASVGDRVTITCRASQGISNWLAWYQQKPEKAPKSLIYTASSLQSGVPSRFSGSGSGTDFTLTISSLQPEDFATYYCQQYNSYPRTFGQGTKVEIK
Take B3: in [10], the Kd was determined as 0.4 nM.

B4: anti-B7RP1 human monoclonal antibody 43H (antibody, V domains shown)
VH: EVQLVQSGGGLVHPGGSLRLSCAGSGFTFSSYAMHWVRQAPGKGLEWVSAIGAGGGTYYADSVKGRFTISRDNAKNSLYLQMNSLRAEDMAVYYCARVVVVVGFFDYWGQGTLVTVSS
VL: DIQMTQSPSSLSASVGDRVTITCRASQGISSWLAWYQQKPEKAPKSLIFAASSLQSGVPSRFSGSGSGTDFTLTISSLQPEDFATYYCQQYNSYPYTFGQGTKLEIK
For B4, the “Plate” value in assay [4] was found to be 0.046 nM.

B5: anti-B7RP1 human monoclonal antibody 16H germline (antibody, V domains shown)
VH: EVQLVESGGGLVQPGGSLRLSCAASGFTFSSYWMSWVRQAPGKGLEWVAYIKQDGNEKYYVDSVKGRFTISRDNAKNSLYLQMNSLRAEDTAVYYCAREGILWFGDLPTFWGQGTLVTVSS
VL: DIQMTQSPSSLSASVGDRVTITCRASQGISNWLAWYQQKPEKAPKSLIYAASSLQSGVPSRFSGSGSGTDFTLTISSLQPEDFATYYCQQYDSYPRTFGQGTKVEIK
Take B5: the “Plate” value in [4] amounted to 0.032 nM. For the same molecule, in assay [1], the “CHO” value came out at 0.523 nM. Further, the Kd was found to be 0.017 nM in assay [5], 2.7 nM in assay [6], 0.017 nM in assay [8] and 2.7 nM in [9].

B6: anti-B7RP1 human monoclonal antibody 41H (antibody, V domains shown)
VH: EVQLVESGGGLVQPGGSLRLSCAASGFTFSSYWMSWVRQAPGKGLEWVAYIKQDGSEKYYVDSVKGRFTISRDNAKNSLYLQMNSLRAEDTAVYYCARDGILWFGDLPTYWGQGTLVTVSS
VL: DIQMTQSPSSLSASVGDRVTITCRASQGISSWLAWYQQKPEKAPKSLIYAASSLQSGVPSRFSGSGSGTDFTLTISSLQPEDFATYYCQQYNTYPRTFGQGTKVEIK
As for B6, the “Plate” value in [4] amounted to 0.052 nM.

B7: anti-B7RP1 human monoclonal antibody 2H (antibody, V domains shown)
VH: EVQLVESGGGLVQPGGSLRLSCVGSGFTFSSYWMSWVRQAPGKGLEWVAYIKQDGSEKYYVDSVKGRFTISRDNAKNSLYLQMNSLRAEDTAVYYCARDGILWFGDIPTYWGQGILVTVSS
VL: DIQMTQSPSSLSASVGDRVTITCRASQGISNWLAWYQQKPEKAPKSLIYTASSLQSGVPSRFSGSGSGTDFTLTISSLQPEDFATYYCQQYNSYPRTFGQGTKVEIK
For B7, the “Plate” value in assay [4] came to 0.043 nM. Further, in assay [1], the “CHO” value is 1.45 nM. Moreover, the Kd amounted to 0.089 nM in assay [2] and 0.33 nM in assay [10]. In [11], the “fold difference in KD against 5D” value is about 10 fold. Also, the binding result in [12] is reported as “no binding”.

B8: anti-B7RP1 human monoclonal antibody 15H (antibody, V domains shown)
VH: EVQLVQSGGGLVHPGGSLRLSCAGSGFTFSSYAMHWVRQAPGKGLEWVSAIGTGGGTYYADSVKGRFTISRDNAKNSLYLQMNSLRAEDMAMYYCAKSGVPLLWFGEFYWGQGTLVTVSS
VL: not shown
B8: the “Plate” value in assay [4] stood at 0.036 nM.

B9: anti-B7RP1 human monoclonal antibody 5D (antibody, V domains shown)
VH: QVQLVESGGGVVQPGRSLRLSCAASGFTFSSYGMHWVRQAPGKGLEWVAVIWYDGSKKYYADSVEGRFTISRDNSKNTLYLQMNSLRAEDTAVFYCARDLNIMVWGIFDYWGQGTLVTVSS
VL: EIVLTQSPATLSLSPGERATLSCRASQSVSSYLAWYQQKPGQAPRLLIYDASNRATGIPARFSGSGSGTDFTLTISSLEPEDFAVYYCQQRNNWPWTFGQGTKVEIK
notes: Fluorescently labelled in the flow cytometry assays; also called 5D mAb; B7RP-1 5D
For B9, the “Plate” value in [4] came to 0.055 nM. The “CHO” value in assay [1] was 1.46 nM. Also, the Kd in [5] turned out to be 0.0016 nM; in assay [6] it was 0.037 nM; in assay [10], 0.018 nM; in assay [8], 0.0016 nM; in assay [9], 0.037 nM. Further, the binding result in assay [13] was “no binding”.
